{"source": "paper PMC5329690", "about": "“A Synthetic Strategy for Conjugation of Paromomycin to Cell-Penetrating Tat(48-60) for Delivery and Visualization into Leishmania Parasites” (International Journal of Peptides, 2017)", "system": "Leishmania donovani promastigotes", "assay": "Intracellular uptake by confocal fluorescence microscopy", "assay_type": "cell-based", "conditions": "L. donovani promastigotes strain MHOM/SD/00/1S-2D, 2 × 10^7 cells/mL in HBSS-Glc; 9 μM conjugate, 4 h, 26°C; washed, DAPI 5 μg/mL, unfixed; confocal fluorescence λex 488 nm/λem 520 nm; representative of two other independent experiments", "description": "Leishmania donovani promastigotes (strain MHOM/SD/00/1S-2D) were resuspended in Hanks' medium supplemented with 10 mM D-glucose (HBSS-Glc) at 2 × 10^7 cells/mL. Afterwards, 9 μM Bodi Fluor 488-labeled PMM-Tat conjugate 6 was added to the parasite suspension and incubated for 4 h in HBSS-Glc. After incubation, non-incorporated 6 was removed by washing the cells with HBSS-Glc. Finally, cells were labeled with DAPI (5 μg/mL, 20 min) before their observation, unfixed, in a Leica TCS–SP2 ABOS confocal laser scanning microscope.\nFigure 3 Fluorescence of Leishmania donovani promastigotes incubated with Bodi Fluor 488-labeled PMM-Tat conjugate (9 μM, 4 h, 26°C) and stained with DAPI (5 μg/mL) immediately before observation, unfixed. Settings: conjugate (green, λex = 488 nm/λem = 520 nm); DAPI (blue, λex = 350 nm/λem = 460 nm). Bar = 20 μm. Experiment is representative of two other ones performed independently.\n4. Parasite culture and confocal microscopy\nLeishmania donovani promastigotes (strain MHOM/SD/00/1S-2D) were resuspended in Hanks’ medium supplemented with 10 mM D-glucose (HBSS-Glc) at 2 × 10^7 cells/mL.\nAfterwards, 9 µM BodiFluor™ 488-labeled PMM-Tat conjugate was added to the parasite suspension and incubated for 4 h in HBSS-Glc. After incubation, non-incorporated conjugate was removed by washing the cells with HBSS-Glc. […]"}
{"substance": "Bodi Fluor-O2Oc-Tat(48-60)-O2Oc-Asp(paromomycin)-amide [compound 6]", "values": [{"measurement": "intracellular uptake (internalization and cellular pattern)", "result": "can enter the parasite, with a diffuse pattern in all the cytoplasm"}]}
